Earlier results on one substance are cited in publication PMC6995525, “Structure of the PUB Domain from Ubiquitin Regulatory X Domain Protein 1 (UBXD1) and Its Interaction with the p97 AAA+ ATPase” (Biomolecules, 2019).

This series deals with p97 last 10 residues (Homo sapiens) (UniProt P55072).
Sequence of p97 last 10 residues (Homo sapiens) (P55072 whole entry, looked up): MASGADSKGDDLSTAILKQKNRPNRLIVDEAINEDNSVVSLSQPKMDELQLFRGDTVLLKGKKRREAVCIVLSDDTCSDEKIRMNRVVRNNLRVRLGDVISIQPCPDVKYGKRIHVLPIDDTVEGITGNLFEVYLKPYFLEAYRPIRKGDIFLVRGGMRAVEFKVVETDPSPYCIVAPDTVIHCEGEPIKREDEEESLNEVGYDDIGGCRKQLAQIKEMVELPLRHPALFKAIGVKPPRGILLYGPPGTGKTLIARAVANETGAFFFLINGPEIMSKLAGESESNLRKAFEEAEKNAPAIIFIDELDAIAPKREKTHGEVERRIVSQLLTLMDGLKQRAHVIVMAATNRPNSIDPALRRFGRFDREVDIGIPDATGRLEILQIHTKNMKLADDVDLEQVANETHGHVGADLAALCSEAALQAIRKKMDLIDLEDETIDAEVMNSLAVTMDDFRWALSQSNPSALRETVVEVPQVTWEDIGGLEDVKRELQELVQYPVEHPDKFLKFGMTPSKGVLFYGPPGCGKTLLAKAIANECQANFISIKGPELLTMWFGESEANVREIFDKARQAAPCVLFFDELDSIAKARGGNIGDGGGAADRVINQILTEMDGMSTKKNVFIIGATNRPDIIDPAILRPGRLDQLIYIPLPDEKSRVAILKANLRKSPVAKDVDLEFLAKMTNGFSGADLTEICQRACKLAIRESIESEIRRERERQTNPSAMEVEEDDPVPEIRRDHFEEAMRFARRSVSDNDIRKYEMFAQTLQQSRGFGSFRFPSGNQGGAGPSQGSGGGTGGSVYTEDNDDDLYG

Sequence of UBXD1 PUB (Q9BZV1 172-247): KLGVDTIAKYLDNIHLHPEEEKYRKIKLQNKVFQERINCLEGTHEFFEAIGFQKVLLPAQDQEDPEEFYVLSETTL

Turning to UBXD1 PUB (from UniProt Q9BZV1), the Kd – broadly, a measure of binding affinity in units of concentration – was 12 µM.
